In US20040082509A1 (XIGEN S A, published 2004):

Target: recombinant JNK1α1 (UniProt P45983-2 1-384)
Experiment: cell-based or functional assay

Sequence of recombinant JNK1α1 (P45983 other isoform, or with tags, fused parts or gaps limits assumed): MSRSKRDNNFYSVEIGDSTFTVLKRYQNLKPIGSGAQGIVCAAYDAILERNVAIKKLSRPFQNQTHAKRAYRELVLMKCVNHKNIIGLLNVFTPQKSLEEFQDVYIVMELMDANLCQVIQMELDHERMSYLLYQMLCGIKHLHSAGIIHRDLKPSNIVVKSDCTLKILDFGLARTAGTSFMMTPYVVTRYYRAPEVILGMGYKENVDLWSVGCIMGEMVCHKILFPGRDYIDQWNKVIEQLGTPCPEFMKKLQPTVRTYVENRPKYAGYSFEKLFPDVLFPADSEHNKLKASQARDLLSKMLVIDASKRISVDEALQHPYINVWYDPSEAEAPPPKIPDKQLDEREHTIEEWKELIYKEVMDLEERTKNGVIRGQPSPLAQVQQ

B1: L-JBD20 peptide (20 amino acid minimal JNK-inhibitory sequence of JIP-IB1) (peptide)
peptide: RPKRPTTLNLFPQVPRSQDT
~1000 nM: IC50, phosphorylation of the JNK target ATF2 | IC50, phosphorylation of the JNK target IRS-1 | IC50, phosphorylation of the JNK target MADD | IC50, phosphorylation of the JNK target bcl-xl
